Reference: article PMC7028737

Target: Skp1-FBW7 complex (UniProt Q969H0)
Assay: ITC; MicroCal VP-ITC, 30 °C, 50 mM phosphate buffer pH 7.4; cell: 15 μM Skp1-FBW7 complex (1400 μL); syringe: 300 μM FIR∆exon2, 25 injections of 10 μL

UniProt Q969H0, sequence (Q969H0 whole entry, chain 1 of 2): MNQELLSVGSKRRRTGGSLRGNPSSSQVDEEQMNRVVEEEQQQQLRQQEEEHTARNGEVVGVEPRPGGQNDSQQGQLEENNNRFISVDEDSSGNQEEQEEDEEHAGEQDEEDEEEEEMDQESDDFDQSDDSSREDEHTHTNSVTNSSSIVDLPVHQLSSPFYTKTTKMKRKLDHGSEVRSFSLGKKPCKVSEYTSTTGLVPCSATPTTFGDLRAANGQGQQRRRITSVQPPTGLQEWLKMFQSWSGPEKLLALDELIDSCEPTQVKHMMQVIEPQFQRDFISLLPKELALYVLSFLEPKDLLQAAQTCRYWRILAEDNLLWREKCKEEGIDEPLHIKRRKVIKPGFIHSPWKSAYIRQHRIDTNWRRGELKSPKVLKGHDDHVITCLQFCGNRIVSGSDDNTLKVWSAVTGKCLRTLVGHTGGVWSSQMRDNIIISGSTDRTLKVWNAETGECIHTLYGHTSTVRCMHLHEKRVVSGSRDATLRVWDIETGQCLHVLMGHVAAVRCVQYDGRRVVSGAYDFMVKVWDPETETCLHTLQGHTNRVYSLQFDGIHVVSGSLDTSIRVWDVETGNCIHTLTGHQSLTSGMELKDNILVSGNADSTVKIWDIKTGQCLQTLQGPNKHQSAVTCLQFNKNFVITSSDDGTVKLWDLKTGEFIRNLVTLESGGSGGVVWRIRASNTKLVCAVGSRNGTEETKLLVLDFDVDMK
UniProt Q969H0, sequence (P63208 whole entry, chain 2 of 2, further chain): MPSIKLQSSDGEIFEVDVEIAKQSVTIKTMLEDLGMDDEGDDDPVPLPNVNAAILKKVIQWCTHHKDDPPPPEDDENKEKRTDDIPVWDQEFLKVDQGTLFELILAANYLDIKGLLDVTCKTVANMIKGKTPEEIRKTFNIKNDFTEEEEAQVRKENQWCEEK

Ka: > 108 M⁻¹
Substance: FIR∆exon2 (recombinant, Nus-tag cleaved) (natural protein)
